Measured values published in US20260078416A1, “ORTHOGONAL METABOLIC FRAMEWORK FOR ONE-CARBON UTILIZATION” (Mojia Biotech Pte. Ltd., priority 2021, published 2026).

Columns and labels:
[1] = In vitro kinetic assay of purified HACS variants, coupled with CaAbfT formyl-CoA generation; substrate formaldehyde; assay type: biochemical; conditions: for Km: read-out: Km, app
Protocol: The kinetic assay was performed with a coupled reaction providing formyl-CoA from formate catalyzed by CoA transferase CaAbfT using acetyl-CoA as a CoA donor.
In vitro kinetic assay was comprised of 100 mM KPi pH 6.9, 10 mM MgCl2, 0.15 mM TPP, 2 mM acetyl-CoA, 1 μM CaAbfT, 0.25 μM HACS variants, and 20 mM sodium formate. Reactions were incubated at room temperature for 3 min to convert formate to formyl-CoA, and then specific concentration of aldehyde (specifically acetaldehyde or propionaldehyde here) was added to the reaction. After incubating another 3 min, 1/20 of the reaction volume of 10 M NaOH solution was added to terminate the reactions. After 30 min hydrolysis, 1/20 of the reaction volume of 10 N H2SO4 was added to neutralize the pH. Samples were centrifuged at 20817×g for 15 minutes and the supernatant analyzed by GC-MS as described below.
For this analysis, 0.15 of the reaction volume of internal standard methyl succinate was added to the samples. The resulting sample was extracted into 4 mL ethyl acetate by vigorous vortexing for 20 min. The organic phase was separated and evaporated to dryness under a stream of nitrogen. The residue was dissolved in 30 μL pyridine and 30 μL N,O-Bis(trimethylsilyl)trifluoroacetamide (BSTFA) and incubated at 60° C. for 15 minutes. Compound identification and analysis was performed by GC-MS using an Agilent 7890B Series Custom Gas Chromatography system equipped with a 5977B Inert Plus Mass Selective Detector Turbo EI Bundle (for identification) and an Agilent HP-5-ms capillary column (0.25 mm internal diameter, 0.25 μm film thickness, 30 m length). Samples were analyzed by GC (1 μL injection with a 20:1 split ratio) using helium as the carrier gas at a flowrate of 1.5 mL/min and the following temperature profile: initial 90° C. for 3 min; ramp at 15° C./min to 170° C.; ramp at 20° C./min to 300° C. and hold for 8 min. The injector and detector temperature were 250° C. and 350° C., respectively.
As hypothesized from Example 3 (FIG. 22B), JGI15 had lower Km with lower kcat with respect to formaldehyde in comparison with JGI20 (Table 8). With longer chain aldehydes JGI15 and JGI20 has lower Km (sub millimolar) to acetaldehyde and propionaldehyde compared to JGI23 and JGI24, while also lower Kcat as well. Which indicates they have stronger affinity to the aldehyde and lower enzymatic activity. JGI23 and JGI24 are promising as they have better activity (higher Kcat) which have a good potential to work better in vivo by improve their affinity to substrates (lower Km). Similarly, AcHACL as lower Km with acetone while JGI15 as better Kcat (Table 8).

[2] = tested on: 2,4-dihydroxybutyric acid production from 3-hydroxypropionaldehyde and formate; experiment: HACS screening with 3-hydroxypropionaldehyde and formate (DHB productivity); assay type: cell-based, E. coli; conditions: 5 mM 3HP and 20 mM formate, first round
From the text: We used 2-hydroxyacid productivity per cell density (μM/OD600) as indicator of HACS activity. 2-Hydroxyacids can be produced co-feeding various aldehydes and formic acid (formate) as carbon source in the presence of active HACS variant and acyl-CoA transferase from Clostridium aminobutyricum (CaAbfT). CaAbfT is shown to be capable of catalyzing reaction from formate to formyl-CoA (Nattermann, M., et al. ACS Catal 11 (9): 5396-5404 (2021)). HACS condenses aldehyde and formyl-CoA to form 2-hydroxyacyl-CoA, which can then be hydrolyzed to 2-hydroxyacid via native thioesterase activities (FIG. 31A).
For the in vivo prototyping, we engineered vectors to independently control expression of HACS variants and CaAbfT, with HACS under control of the IPTG-inducible T7 promoter in pCDFDuet-1 and CaAbfT under control of a cumate-inducible T5 promoter in pETDuet-1 (FIG. 31B) and transformed them into the engineered strain of E. coli described in EXAMPLE 3.
The HACS variants were screened for 2-hydroxyacid production using the high throughput screening platform as described in EXAMPLE 3 by co-feeding 5 mM aldehyde and 20 mM formate. The cells were harvested after 1 hour by centrifugation and the supernatant analyzed by HPLC (as described in EXAMPLE 2) or SoGO method.
We used 2,4-dihydroxybutyric acid (DHB) productivity per cell density (uM DHB/OD600) as indicator of HACS activity. […]

B1: JGI20: HACS variant; GenBank PWB41796.1 (protein)
chain: MGQITGAQIVARALKQQGVEYMFGIVGIPVIPIAMFAQREGIKFYGFRNEQSASYAAAAVGYLTGRPGVCLGVSGPGMIHGVAGMANAWSNCWPMILIGGANDSYQNGQGAFQEAPQIEAARPFAKYCARPDSLARLPFYVEQAVRTSIYGRPGAVYLDLPGDIITGAMEEEDVHFPPRCPDAPRMMAPQESIDAAMAALKSAERPLVIVGKGAAYSRAENEVREFLETTQLPYLASPMGKGVMPDDHPLSIAPARSAALLGADVILLMGARLNWMMHFGHPPRFDPKVRVIQMDISAEEIGTNVPTEVALVGDAKAITTQLNASLKQQPWQYPSETTWWTGLRKKIDENGATVAEMMADESVPMSYYRVYREIRDLIPNDAIIQNEGASTMDIGRTLMPNFLPRHRLDAGSFGTMGVGLGQAIAAAAVHPDKHVFCIEGDSAFGFSGMEVETAARYGMKNITFIIINNNGIGGGPDTLDPTRVPPSAYTPNAHYEKMAEIYGGKGYFVTEPSQLRPALEEAIKADKPAIVNIMISATSQRKPQQFAWLTR
In the case of B1, the “Kcat, app” value [1] is reported as 9.53 s⁻¹, the Km [1] is reported as 21.4 mM and the DHB productivity [2] is reported as “decent DHB productivity”.

B2: JGI15: HACS variant; GenBank HAK63664.1 (protein)
chain: MAKSEGKVNGATLMARALQQQGVQYMFGIVGFPVIPIAIAAQREGITYIGMRNEQSASYAAQAASYLTGRPQACLVVSGPGVVHALAGLANAQVNCWPMLLIGGASAIEQNGMGAFQEERQVLLASPLCKYAHQVERPERIPYYVEQAVRSALFGRPGAAYLDMPDDVILGEVEEAAVRPAATVGEPPRSLAPQENIEAALDALQSAKRPLVIVGKGMAWSRAENEVRQFIERTRLPFLATPMGKGVMPDDHPLSVGGARSHALQEADLVFLLGARFNWILHFGLPPRYSKDVRVIQLDLSAEEIGNNRQAEVALVGDGKAIVGQLNQALSSRQWFYPAETPWREAIAAKIAGNQAAVAPMIADNTSPMNYYRVYRDIAARLPRNAIIVGEGANTMDIGRTQMPNFEPRSRLDAGSYGTMGIGLGFAVAAAAVHPGRPVIAVQGDSAFGFSGMEFETAARYGMPIKVIILNNGGIGMGSPAPRDGQPGMPHALSHDARYERIAEAFGGAGFYVTDSAELGPALDAAMAFKGPAIVNIKIAATADRKPQQFNWHG
For B2, the “Kcat, app” value [1] was 5.98 s⁻¹, the Km [1] was 3.87 mM and the DHB productivity [2] was “decent DHB productivity”.
